Experimental data as given in the supplement of paper PMC9112550, “Optimization of the antimicrobial peptide Bac7 by deep mutational scanning” (BMC Biology, 2022).

Each sequence was assayed on Escherichia coli TOP10 (assay: shrunken log2 fold change of peptide-encoding DNA abundance (4.5 h post-induction vs induction); higher = less antimicrobial activity (less host growth inhibition)). Conditions: time post-induction: 4.5 h; library: site-saturation at positions 5, 18, 19, 20.
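Note: peptides expressed intracellularly from a pBAD plasmid library in pooled LB shake-flask culture, induced with 0.3% L-arabinose, DNA abundance read by NGS, three biological replicates, DESeq2 with apeglm shrinkage.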

Sequence | shrunken log2 fold change
RRIRKRPPRLPRPRPRPGFHPRP | 0.206
RRIRKRPPRLPRPRPRPGGLPRP | 0.0184
RRIRKRPPRLPRPRPRPGHFPRP | 0.0417
RRIRKRPPRLPRPRPRPGHKPRP | 0.193
RRIRKRPPRLPRPRPRPGHRPRP | 0.118
RRIRKRPPRLPRPRPRPGKWPRP | 0.184
RRIRKRPPRLPRPRPRPGLQPRP | -0.00225
RRIRKRPPRLPRPRPRPGNAPRP | 0.418
RRIRKRPPRLPRPRPRPGNLPRP | 0.0368
RRIRKRPPRLPRPRPRPGPRPRP | 1.08
RRIRKRPPRLPRPRPRPGQDPRP | 0.37
RRIRKRPPRLPRPRPRPGSAPRP | 0.843
RRIRKRPPRLPRPRPRPGSGPRP | 0.708
RRIRKRPPRLPRPRPRPGWMPRP | 0.269
RRIRKRPPRLPRPRPRPGWPPRP | 0.424
RRIRKRPPRLPRPRPRPGYEPRP | -0.0888
RRIRKRPPRLPRPRPRPGYMPRP | -0.144
RRIRKRPPRLPRPRPRPGYYPRP | -0.0439
RRIRKRPPRLPRPRPRPHDRPRP | 0.29
RRIRKRPPRLPRPRPRPHESPRP | 0.23
RRIRKRPPRLPRPRPRPHEYPRP | -0.091
RRIRKRPPRLPRPRPRPHFFPRP | 0.101
RRIRKRPPRLPRPRPRPHFPPRP | 0.179
RRIRKRPPRLPRPRPRPHFVPRP | 0.347
RRIRKRPPRLPRPRPRPHGLPRP | 0.0425

Sequence | shrunken log2 fold change
RRIRKRPPRLPRPRPRPHGMPRP | -0.00215
RRIRKRPPRLPRPRPRPHGYPRP | 0.0773
RRIRKRPPRLPRPRPRPHIFPRP | -0.0478
RRIRKRPPRLPRPRPRPHIPPRP | -0.247
RRIRKRPPRLPRPRPRPHKSPRP | 0.0371
RRIRKRPPRLPRPRPRPHKVPRP | -0.033
RRIRKRPPRLPRPRPRPHLIPRP | 0.108
RRIRKRPPRLPRPRPRPHLQPRP | 0.224
RRIRKRPPRLPRPRPRPHLSPRP | 0.0468
RRIRKRPPRLPRPRPRPHQHPRP | 0.213
RRIRKRPPRLPRPRPRPHQMPRP | 0.0681
RRIRKRPPRLPRPRPRPHRQPRP | 0.277
RRIRKRPPRLPRPRPRPHRSPRP | 0.0882
RRIRKRPPRLPRPRPRPHSIPRP | 0.124
RRIRKRPPRLPRPRPRPHTYPRP | -0.101
RRIRKRPPRLPRPRPRPHWDPRP | 0.0835
RRIRKRPPRLPRPRPRPHYGPRP | -0.0816
RRIRKRPPRLPRPRPRPIAFPRP | -0.0784
RRIRKRPPRLPRPRPRPICEPRP | 0.115
RRIRKRPPRLPRPRPRPIDCPRP | 0.0653
RRIRKRPPRLPRPRPRPIECPRP | -0.0298
RRIRKRPPRLPRPRPRPIFKPRP | 0.307
RRIRKRPPRLPRPRPRPIGQPRP | 0.0684
RRIRKRPPRLPRPRPRPIGYPRP | -0.0204
RRIRKRPPRLPRPRPRPIHNPRP | -0.0348

Sequence | shrunken log2 fold change
RRIRKRPPRLPRPRPRPIINPRP | 0.172
RRIRKRPPRLPRPRPRPILIPRP | 0.0193
RRIRKRPPRLPRPRPRPILMPRP | 0.0297
RRIRKRPPRLPRPRPRPILYPRP | -0.505
RRIRKRPPRLPRPRPRPIMTPRP | -0.111
RRIRKRPPRLPRPRPRPIPMPRP | 0.0472
RRIRKRPPRLPRPRPRPIQDPRP | -0.106
RRIRKRPPRLPRPRPRPIQNPRP | 0.151
RRIRKRPPRLPRPRPRPISIPRP | 0.0294
RRIRKRPPRLPRPRPRPISKPRP | -0.357
RRIRKRPPRLPRPRPRPITHPRP | -0.0971
RRIRKRPPRLPRPRPRPIVHPRP | -0.42
RRIRKRPPRLPRPRPRPIWAPRP | -0.0352
RRIRKRPPRLPRPRPRPIYRPRP | -0.0881
RRIRKRPPRLPRPRPRPKAKPRP | 0.0663
RRIRKRPPRLPRPRPRPKANPRP | 0.768
RRIRKRPPRLPRPRPRPKDDPRP | 0.0898
RRIRKRPPRLPRPRPRPKDFPRP | -0.0746
RRIRKRPPRLPRPRPRPKDMPRP | 0.139
RRIRKRPPRLPRPRPRPKDQPRP | 0.619
RRIRKRPPRLPRPRPRPKDRPRP | 0.088
RRIRKRPPRLPRPRPRPKDWPRP | 0.742
RRIRKRPPRLPRPRPRPKEKPRP | 0.0508
RRIRKRPPRLPRPRPRPKGLPRP | -0.00973
RRIRKRPPRLPRPRPRPKGRPRP | 0.262

Sequence | shrunken log2 fold change
RRIRKRPPRLPRPRPRPKIPPRP | 0.174
RRIRKRPPRLPRPRPRPKKDPRP | 0.337
RRIRKRPPRLPRPRPRPKKVPRP | -0.0126
RRIRKRPPRLPRPRPRPKNKPRP | 0.287
RRIRKRPPRLPRPRPRPKNYPRP | 0.0189
RRIRKRPPRLPRPRPRPKPNPRP | 0.516
RRIRKRPPRLPRPRPRPKQMPRP | 0.471
RRIRKRPPRLPRPRPRPKRGPRP | 0.781
RRIRKRPPRLPRPRPRPKSKPRP | 0.45
RRIRKRPPRLPRPRPRPKSQPRP | 0.109
RRIRKRPPRLPRPRPRPKSTPRP | 0.0348
RRIRKRPPRLPRPRPRPKVFPRP | -0.0531
RRIRKRPPRLPRPRPRPKWAPRP | 0.0446
RRIRKRPPRLPRPRPRPKWLPRP | -0.0433
RRIRKRPPRLPRPRPRPLAKPRP | 0.614
RRIRKRPPRLPRPRPRPLCFPRP | 0.188
RRIRKRPPRLPRPRPRPLDFPRP | 0.188
RRIRKRPPRLPRPRPRPLDLPRP | -0.203
RRIRKRPPRLPRPRPRPLFDPRP | -0.0965
RRIRKRPPRLPRPRPRPLFNPRP | 0.0323
RRIRKRPPRLPRPRPRPLGLPRP | 0.159
RRIRKRPPRLPRPRPRPLKYPRP | 0.072
RRIRKRPPRLPRPRPRPLLAPRP | 0.833
RRIRKRPPRLPRPRPRPLLFPRP | 0.176
RRIRKRPPRLPRPRPRPLLSPRP | 0.523

Sequence | shrunken log2 fold change
RRIRKRPPRLPRPRPRPLMAPRP | 0.635
RRIRKRPPRLPRPRPRPLMDPRP | 0.16
RRIRKRPPRLPRPRPRPLMIPRP | -0.171
RRIRKRPPRLPRPRPRPLNNPRP | -0.0972
RRIRKRPPRLPRPRPRPLPKPRP | 0.54
RRIRKRPPRLPRPRPRPLQGPRP | 0.154
RRIRKRPPRLPRPRPRPLRRPRP | 0.689
RRIRKRPPRLPRPRPRPLVEPRP | 0.734
RRIRKRPPRLPRPRPRPLVLPRP | -0.0684
RRIRKRPPRLPRPRPRPLVVPRP | -0.0832
RRIRKRPPRLPRPRPRPMAEPRP | 0.208
RRIRKRPPRLPRPRPRPMCGPRP | 0.0595
RRIRKRPPRLPRPRPRPMDTPRP | 0.336
RRIRKRPPRLPRPRPRPMFEPRP | 0.312
RRIRKRPPRLPRPRPRPMGDPRP | 0.153
RRIRKRPPRLPRPRPRPMGNPRP | 0.111
RRIRKRPPRLPRPRPRPMGRPRP | -0.0264
RRIRKRPPRLPRPRPRPMHAPRP | 0.00395
RRIRKRPPRLPRPRPRPMHKPRP | 0.351
RRIRKRPPRLPRPRPRPMKAPRP | -0.00163
RRIRKRPPRLPRPRPRPMKKPRP | 0.172
RRIRKRPPRLPRPRPRPMKTPRP | 0.0431
RRIRKRPPRLPRPRPRPMMGPRP | -0.0567
RRIRKRPPRLPRPRPRPMNAPRP | 0.228
RRIRKRPPRLPRPRPRPMNLPRP | -0.223

Sequence | shrunken log2 fold change
RRIRKRPPRLPRPRPRPMPIPRP | 0.0778
RRIRKRPPRLPRPRPRPMQDPRP | -0.0916
RRIRKRPPRLPRPRPRPMQIPRP | -0.0337
RRIRKRPPRLPRPRPRPMQKPRP | -0.00412
RRIRKRPPRLPRPRPRPMQQPRP | -0.000844
RRIRKRPPRLPRPRPRPMQRPRP | 0.744
RRIRKRPPRLPRPRPRPMQYPRP | -0.0135
RRIRKRPPRLPRPRPRPMRQPRP | 0.384
RRIRKRPPRLPRPRPRPMTEPRP | 0.0103
RRIRKRPPRLPRPRPRPMWAPRP | 0.184
RRIRKRPPRLPRPRPRPMWFPRP | 0.0615
RRIRKRPPRLPRPRPRPMWHPRP | -0.183
RRIRKRPPRLPRPRPRPMYAPRP | -0.145
RRIRKRPPRLPRPRPRPMYGPRP | 0.00748
RRIRKRPPRLPRPRPRPNANPRP | 0.135
RRIRKRPPRLPRPRPRPNDAPRP | 0.0832
RRIRKRPPRLPRPRPRPNDCPRP | -0.0159
RRIRKRPPRLPRPRPRPNDWPRP | 0.455
RRIRKRPPRLPRPRPRPNEAPRP | -0.00686
RRIRKRPPRLPRPRPRPNEVPRP | -0.152
RRIRKRPPRLPRPRPRPNGGPRP | 0.0116
RRIRKRPPRLPRPRPRPNHGPRP | -0.0607
RRIRKRPPRLPRPRPRPNINPRP | -0.169
RRIRKRPPRLPRPRPRPNKFPRP | -0.0338
RRIRKRPPRLPRPRPRPNKVPRP | -0.00759
